Biological target: HsRAD50-head (Homo sapiens, UniProt Q92878;Q92878 1-200;1113-1312)
Test: EMSA; Mg-ATP; EMSA: 20 mM Bis-Tris propane pH 8.0, 200 mM NaCl, 0.5 mM TCEP, Mg-ATP added to RAD50, 500 nM DNA duplex; 5% polyacrylamide, 0.5x TBE, 4 C gel run (binding temperature not stated)
Conditions: protein: recombinant; tags: C-terminal 3C site + 2xStrep-II on the 1-200 fragment; chain copies: 2;2; label: 5'-carboxyfluorescein (F) on strand 1; blunt ends; as printed S2 is 47 nt and lacks the G opposite C21 of S1 (1-nt bulge, possibly a misprint)

HsRAD50-head, sequence (Q92878 1-200, chain 1 of 2): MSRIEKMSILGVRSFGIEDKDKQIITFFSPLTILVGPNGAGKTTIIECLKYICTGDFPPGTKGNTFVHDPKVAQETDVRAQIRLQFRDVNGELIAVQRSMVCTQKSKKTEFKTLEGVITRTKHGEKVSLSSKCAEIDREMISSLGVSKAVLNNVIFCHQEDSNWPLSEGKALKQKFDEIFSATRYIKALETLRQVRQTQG
HsRAD50-head, sequence (Q92878 1113-1312, chain 2 of 2): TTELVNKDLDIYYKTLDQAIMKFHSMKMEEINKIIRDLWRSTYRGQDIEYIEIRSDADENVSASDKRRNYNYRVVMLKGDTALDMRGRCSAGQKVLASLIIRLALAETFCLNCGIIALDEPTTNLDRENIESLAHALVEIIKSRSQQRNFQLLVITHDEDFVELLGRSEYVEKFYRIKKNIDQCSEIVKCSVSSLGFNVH

B1: 48-mer DNA duplex (dsDNA)
DNA 1: TAGTGCTGTAGGAGAATATACGGGCTGCTCGTGTTGACAAGTACTGAT
DNA 2: ATCAGTACTTGTCAACACGAGCAGCCCTATATTCTCCTACAGCACTA
B1: binds.
